# Earlier results as cited in publication PMC8369179.
# Target: RAGE 23-121 (Homo sapiens) (UniProt Q15109)
# Chain of UniProt Q15109 (Q15109 23-121): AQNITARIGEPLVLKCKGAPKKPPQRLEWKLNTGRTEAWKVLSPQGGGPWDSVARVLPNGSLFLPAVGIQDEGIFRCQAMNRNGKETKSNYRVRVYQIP
substance,measurement,value
HMGB1 1-215 (from UniProt P09429),Kd,48.3 nM
